In US7153676B1, “Transacylases of the paclitaxel biosynthetic pathway” (priority 1999, dated 2006):

Substrate: CC(=O)SCCNC(=O)CCNC(=O)[C@H](O)C(C)(C)COP(=O)(O)OP(=O)(O)OC[C@H]1O[C@@H](n2cnc3c(N)ncnc32)[C@H](O)[C@@H]1OP(=O)(O)O
Assay: purified protein, by the assay type
Conditions: other: Lineweaver-Burk analysis, partially purified recombinant TAX6

B1: 10-deacetylbaccatin III-10-O-acetyl transferase (TAX6) (Taxus cuspidata) (protein)
chain: MAGSTEFVVRSLERVMVAPSQPSPKAFLQLSTLDNLPGVRENIFNTLLVYNASDRVSVDPAKVIRQALSKVLVYYSPFAGRLRKKENGDLEVECTGEGALFVEAMADTDLSVLGDLDDYSPSLEQLLFCLPPDTDIEDIHPLVVQVTRFTCGGFVVGVSFCHGICDGLGAGQFLIAMGEMARGEIKPSSEPIWKRELLKPEDPLYRFQYYHFQLICPPSTFGKIVQGSLVITSETINCIKQCLREESKEFCSAFEVVSALAWIARTRALQIPHSENVKLIFAMDMRKLFNPPLSKGYYGNFVGTVCAMDNVKDLLSGSLLRVVRIIKKAKVSLNEHFTSTIVTPRSGSDESINYENIVGFGDRRRLGFDEVDFGWGHADNVSLVQHGLKDVSVVQSYFLFIRPPKNNPDGIKILSFMPPSIVKSFKFEMETMTNKYVTKP
- Km: 8 µM
